Laboratory results as given in paper PMC10786891, “Massively parallel profiling of RNA-targeting CRISPR-Cas13d”.
Where a chain is given by its changes, count along the chain named. Names may count otherwise.

T1: EsCas13d, nuclease-dead (Eubacterium siraeum, UniProt B0MS50, R295A;H300A;R849A;H854A)
T1 sequence: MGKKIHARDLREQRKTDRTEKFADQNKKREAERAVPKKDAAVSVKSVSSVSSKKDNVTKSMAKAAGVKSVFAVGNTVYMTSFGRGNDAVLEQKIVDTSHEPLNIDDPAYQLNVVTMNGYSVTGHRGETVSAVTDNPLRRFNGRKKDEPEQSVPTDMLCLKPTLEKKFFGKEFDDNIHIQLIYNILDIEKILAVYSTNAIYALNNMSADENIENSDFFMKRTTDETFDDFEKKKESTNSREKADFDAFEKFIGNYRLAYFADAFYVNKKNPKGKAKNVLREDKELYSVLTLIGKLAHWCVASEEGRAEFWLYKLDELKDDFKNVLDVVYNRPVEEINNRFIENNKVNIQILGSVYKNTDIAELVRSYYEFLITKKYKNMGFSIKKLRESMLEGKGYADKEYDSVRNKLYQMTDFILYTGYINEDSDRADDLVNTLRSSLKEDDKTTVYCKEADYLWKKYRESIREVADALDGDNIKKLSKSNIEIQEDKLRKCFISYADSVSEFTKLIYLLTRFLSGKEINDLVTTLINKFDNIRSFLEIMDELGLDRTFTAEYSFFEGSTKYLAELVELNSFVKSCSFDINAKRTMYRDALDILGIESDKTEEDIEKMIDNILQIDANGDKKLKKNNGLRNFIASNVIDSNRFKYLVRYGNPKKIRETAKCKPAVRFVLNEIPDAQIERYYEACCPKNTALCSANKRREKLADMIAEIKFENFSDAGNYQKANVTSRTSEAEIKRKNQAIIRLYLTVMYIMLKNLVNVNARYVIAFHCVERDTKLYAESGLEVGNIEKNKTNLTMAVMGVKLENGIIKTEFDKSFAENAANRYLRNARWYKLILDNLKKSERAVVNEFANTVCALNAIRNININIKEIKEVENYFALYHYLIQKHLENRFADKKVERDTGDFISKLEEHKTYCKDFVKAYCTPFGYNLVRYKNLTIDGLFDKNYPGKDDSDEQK

B1: target 1 insA 3' of 4,insU 3' of 4 (mixed)
RNA 1: CACCCGUGCAAAAAUGCAGGGGUCUAAAACUGAGCGGAUAACCUCUCUAUGG
RNA 2: GGGAAUGGAUCCACAUCUACGAAUUCGUACCAUAGAGAGGUUAUCCGCAUUCACCGAGAUCGGAAGAGCACACGU
B2: target 1 MT 5'PFS CUA 3'PFS AUG (mixed)
RNA 1: B1 RNA 1
RNA 2: GGGAAUGGAUCCACAUCUACGAAUUCCUACCAUAGAGAGGUUAUCCGCUCAAUGAGAUCGGAAGAGCACACGU
B3: target 1 MT 5'PFS UUA 3'PFS AGU (mixed)
RNA 1: B1 RNA 1
RNA 2: B2 RNA 2 with C27U, U53G, G54U
B4: target 1 MT 5'PFS GCG 3'PFS CAA (mixed)
RNA 1: B1 RNA 1
RNA 2: B2 RNA 2 with C27G, U28C, A29G, A52C, U53A, G54A
B5: target 1 MT 5'PFS CCG 3'PFS CUG (mixed)
RNA 1: B1 RNA 1
RNA 2: B2 RNA 2 with U28C, A29G, A52C
B6: target 1 MT 5'PFS CUA 3'PFS AUU (mixed)
RNA 1: B1 RNA 1
RNA 2: B2 RNA 2 with G54U
B7: target 1 MT 5'PFS AAG 3'PFS AUA (mixed)
RNA 1: B1 RNA 1
RNA 2: B2 RNA 2 with C27A, U28A, A29G, G54A
B8: target 1 MT 5'PFS CUA 3'PFS AUA (mixed)
RNA 1: B1 RNA 1
RNA 2: B2 RNA 2 with G54A
B9: target 1 MT 5'PFS CCG 3'PFS UAA (mixed)
RNA 1: B1 RNA 1
RNA 2: B2 RNA 2 with U28C, A29G, A52U, U53A, G54A
B10: target 1 U11G,G12U (mixed)
RNA 1: B1 RNA 1
RNA 2: B2 RNA 2 with C27G, G40U, U41G, A52C, U53C
B11: target 1 MT 5'PFS AAG 3'PFS AUC (mixed)
RNA 1: B1 RNA 1
RNA 2: B2 RNA 2 with C27A, U28A, A29G, G54C
B12: target 1 MT 5'PFS CCA 3'PFS ACG (mixed)
RNA 1: B1 RNA 1
RNA 2: B2 RNA 2 with U28C, U53C
B13: target 1 MT 5'PFS GCC 3'PFS AAU (mixed)
RNA 1: B1 RNA 1
RNA 2: B2 RNA 2 with C27G, U28C, A29C, U53A, G54U
B14: target 1 MT 5'PFS GCG 3'PFS CAC (mixed)
RNA 1: B1 RNA 1
RNA 2: B2 RNA 2 with C27G, U28C, A29G, A52C, U53A, G54C
B15: target 1 MT 5'PFS CCG 3'PFS UAG (mixed)
RNA 1: B1 RNA 1
RNA 2: B2 RNA 2 with U28C, A29G, A52U, U53A
B16: target 1 MT 5'PFS GUC 3'PFS AAA (mixed)
RNA 1: B1 RNA 1
RNA 2: B2 RNA 2 with C27G, A29C, U53A, G54A
B17: target 1 MT 5'PFS GCC 3'PFS AAG (mixed)
RNA 1: B1 RNA 1
RNA 2: B2 RNA 2 with C27G, U28C, A29C, U53A
B18: target 1 MT 5'PFS CCG 3'PFS CUA (mixed)
RNA 1: B1 RNA 1
RNA 2: B2 RNA 2 with U28C, A29G, A52C, G54A
B19: target 1 MT 5'PFS GCG 3'PFS CAG (mixed)
RNA 1: B1 RNA 1
RNA 2: B2 RNA 2 with C27G, U28C, A29G, A52C, U53A
B20: target 1 MT 5'PFS GUC 3'PFS UCC (mixed)
RNA 1: B1 RNA 1
RNA 2: B2 RNA 2 with C27G, A29C, A52U, U53C, G54C
B21: target 1 MT 5'PFS GUC 3'PFS UCU (mixed)
RNA 1: B1 RNA 1
RNA 2: B2 RNA 2 with C27G, A29C, A52U, U53C, G54U
B22: target 1 C2G,G17A (mixed)
RNA 1: B1 RNA 1
RNA 2: B2 RNA 2 with C27G, G35A, C50G, A52C, U53C
B23: target 1 MT 5'PFS GUC 3'PFS UCG (mixed)
RNA 1: B1 RNA 1
RNA 2: B2 RNA 2 with C27G, A29C, A52U, U53C
B24: target 1 MT 5'PFS GUC 3'PFS UCA (mixed)
RNA 1: B1 RNA 1
RNA 2: B2 RNA 2 with C27G, A29C, A52U, U53C, G54A
B25: target 1 MT 5'PFS CCG 3'PFS CUC (mixed)
RNA 1: B1 RNA 1
RNA 2: B2 RNA 2 with U28C, A29G, A52C, G54C
B26: target 1 insG 3' of 18,insC 3' of 13 (mixed)
RNA 1: B1 RNA 1
RNA 2: GGGAAUGGAUCCACAUCUACGAAUUCGUACCAUAGGAGAGCGUUAUCCGCUCACCGAGAUCGGAAGAGCACACGU
B27: target 1 MT 5'PFS CCG 3'PFS UAC (mixed)
RNA 1: B1 RNA 1
RNA 2: B2 RNA 2 with U28C, A29G, A52U, U53A, G54C
B28: target 1 MT 5'PFS CCG 3'PFS UAU (mixed)
RNA 1: B1 RNA 1
RNA 2: B2 RNA 2 with U28C, A29G, A52U, U53A, G54U
B29: target 1 MT 5'PFS GUC 3'PFS CGU (mixed)
RNA 1: B1 RNA 1
RNA 2: B2 RNA 2 with C27G, A29C, A52C, U53G, G54U
B30: target 1 MT 5'PFS GCG 3'PFS ACU (mixed)
RNA 1: B1 RNA 1
RNA 2: B2 RNA 2 with C27G, U28C, A29G, U53C, G54U
B31: target 1 MT 5'PFS CUC 3'PFS UAA (mixed)
RNA 1: B1 RNA 1
RNA 2: B2 RNA 2 with A29C, A52U, U53A, G54A
B32: target 1 MT 5'PFS AAG 3'PFS AUG (mixed)
RNA 1: B1 RNA 1
RNA 2: B2 RNA 2 with C27A, U28A, A29G
B33: target 1 MT 5'PFS GCC 3'PFS AAA (mixed)
RNA 1: B1 RNA 1
RNA 2: B2 RNA 2 with C27G, U28C, A29C, U53A, G54A
B34: target 1 MT 5'PFS CCA 3'PFS ACU (mixed)
RNA 1: B1 RNA 1
RNA 2: B2 RNA 2 with U28C, U53C, G54U
B35: target 1 MT 5'PFS GCG 3'PFS CAU (mixed)
RNA 1: B1 RNA 1
RNA 2: B2 RNA 2 with C27G, U28C, A29G, A52C, U53A, G54U
B36: target 1 MT 5'PFS GUC 3'PFS AAG (mixed)
RNA 1: B1 RNA 1
RNA 2: B2 RNA 2 with C27G, A29C, U53A
B37: target 1 MT 5'PFS CUA 3'PFS AUC (mixed)
RNA 1: B1 RNA 1
RNA 2: B2 RNA 2 with G54C
B38: target 1 MT 5'PFS ACA 3'PFS CAU (mixed)
RNA 1: B1 RNA 1
RNA 2: B2 RNA 2 with C27A, U28C, A52C, U53A, G54U
B39: target 1 MT 5'PFS GCC 3'PFS AAC (mixed)
RNA 1: B1 RNA 1
RNA 2: B2 RNA 2 with C27G, U28C, A29C, U53A, G54C
B40: target 1 G15A,C21U (mixed)
RNA 1: B1 RNA 1
RNA 2: B2 RNA 2 with C27G, C31U, G37A, A52C, U53C

Molecular target: T1, EsCas13d, nuclease-dead
Assay: crRNA (strand 1, pre-loaded); Mg2+; 40 mM Tris-HCl pH 7.5, 150 mM NaCl, 6 mM MgCl2, 1 mM DTT, 0.1% Tween-20, 0.2 mg/ml BSA; 25 C; 10 min per concentration, then washed
Conditions: tags: His6-TwinStrep-SUMO cleaved; N-terminal SNAP kept (SNAP-Surface 488); label: 3' end held by stalled T7 RNA polymerase

Binder | Kd
B1 | 12.4 ± 1.6 nM
B2 | 37 ± 10 nM
B3 | 74.5 ± 29 nM
B4 | 49.5 ± 24.5 nM
B5 | 1.95 ± 0.465 nM
B6 | 6.05 ± 1.65 nM
B7 | 26.6 ± 7.15 nM
B8 | 7.15 ± 1.5 nM
B9 | 14.2 ± 4.6 nM
B10 | ~50 nM
B11 | 26.5 ± 10 nM
B12 | 3.95 ± 1.6 nM
B13 | ~27 nM
B14 | ~42 nM
B15 | 3.35 ± 0.595 nM
B16 | 38 ± 8 nM
B17 | 28 ± 6.5 nM
B18 | 7.9 ± 2.9 nM
B19 | ~56.5 nM
B20 | 11.2 ± 3.1 nM

Binder | Kd
B21 | 16.1 ± 3.15 nM
B22 | 25 ± 1.9 nM
B23 | 14.4 ± 2.7 nM
B24 | 18.5 ± 5.5 nM
B25 | 3.15 ± 1 nM
B26 | 70 ± 24 nM
B27 | ~2.85 nM
B28 | 3.2 ± 1 nM
B29 | 13.2 ± 1.9 nM
B30 | 18.2 ± 3.9 nM
B31 | 59 ± 25 nM
B32 | 33 ± 8.5 nM
B33 | 59.5 ± 19 nM
B34 | 14 ± 5.5 nM
B35 | ~29 nM
B36 | 20.5 ± 5.5 nM
B37 | 14.2 ± 3.1 nM
B38 | ~20 nM
B39 | 23 ± 7.5 nM
B40 | 6.9 ± 0.4 nM
